Common to all, as to assay: NanoBRET
A general note: Bioluminescence resonance energy transfer reports proximity on the nanometre scale.

The target in experiment [1] is HaloTag-fused and NanoLuc-fused Gag-MA-G2A (NanoBRET pair). To be noted: living cells; n = 6; mean ± SE; WMAA signal subtracted; parent: est. 100.
Experiment [2] concerns the target HaloTag-fused and NanoLuc-fused Gag-MA-S9A (NanoBRET pair). The settings on record: living cells; n = 6; mean ± SE; WMAA signal subtracted; parent: est. 100; read off a plot.
For experiment [3], the target named is HaloTag-fused and NanoLuc-fused Gag-MA-S9F (NanoBRET pair). The settings on record: living cells; n = 6; mean ± SE; WMAA signal subtracted; parent: est. 100; read off a plot.
In experiment [4] the target is HaloTag-fused and NanoLuc-fused Gag-MA-S9I (NanoBRET pair). To be noted: living cells; n = 6; mean ± SE; WMAA signal subtracted; parent: est. 100; read off a plot.
The target in experiment [5] is HaloTag-fused and NanoLuc-fused Gag-MA-S9W (NanoBRET pair). The settings on record: living cells; n = 6; mean ± SE; WMAA signal subtracted; parent: est. 100; read off a plot.
The target in experiment [6] is HaloTag-fused and NanoLuc-fused Gag-CA-WM184/185AA (NanoBRET pair). The settings on record: living cells; n = 6; mean ± SE; WMAA signal subtracted; parent: est. 100; read off a plot.

This passage reports percent of parent results from publication PMC12548442.

Turning to “HaloTag-fused Gag and NanoLuc-fused Gag, wild type (NanoBRET pair) G2A”, the percent of parent in experiment [1] worked out at 0%.

On to “HaloTag-fused Gag and NanoLuc-fused Gag, wild type (NanoBRET pair) S9A”, for which the percent of parent in experiment [2] amounted to 72%.

“HaloTag-fused Gag and NanoLuc-fused Gag, wild type (NanoBRET pair) S9F”: the percent of parent in experiment [3] came out at 8.6%.

As to “HaloTag-fused Gag and NanoLuc-fused Gag, wild type (NanoBRET pair) S9I”, the percent of parent in experiment [4] was determined as 68%.

For “HaloTag-fused Gag and NanoLuc-fused Gag, wild type (NanoBRET pair) S9W”, in experiment [5], the percent of parent is 42%.

As for “HaloTag-fused Gag and NanoLuc-fused Gag, wild type (NanoBRET pair) W184A; M185A”, the percent of parent in experiment [6] was found to be 0%.
